PMC9482650, “Quantitative fragmentomics allow affinity mapping of interactomes” (Nature Communications, 2022)
Values belong to the binder of their own block, whether it stands above or below them.

Tests used:
Assay in all cases: holdup assay
Design in all cases: key: below the threshold = too weak to quantify, mostly under pKd 3.1 to 4
[1] = biological target: AHNAK1, Q09666
[2] = biological target: T1, APBA3_1, O96018
T1 sequence (O96018 389-490, limits assumed, looked up): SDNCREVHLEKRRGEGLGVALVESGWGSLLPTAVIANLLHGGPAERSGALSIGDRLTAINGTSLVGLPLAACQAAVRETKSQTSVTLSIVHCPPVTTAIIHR

[3] = biological target: T2, CARD11, Q9BXL7
T2 sequence (Q9BXL7 662-765, limits assumed, looked up): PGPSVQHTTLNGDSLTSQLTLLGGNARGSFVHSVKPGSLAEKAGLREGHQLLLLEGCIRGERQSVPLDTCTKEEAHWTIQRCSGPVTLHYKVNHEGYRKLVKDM

[4] = biological target: DLG1_3, Q12959
Chain of DLG1_3, Q12959 (Q12959 457-571): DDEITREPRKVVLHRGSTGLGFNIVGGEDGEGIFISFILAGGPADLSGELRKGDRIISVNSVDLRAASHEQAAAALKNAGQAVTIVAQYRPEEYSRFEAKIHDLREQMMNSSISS

[5] = biological target: DLG2_2, Q15700
Chain of DLG2_2, Q15700 (Q15700 189-283): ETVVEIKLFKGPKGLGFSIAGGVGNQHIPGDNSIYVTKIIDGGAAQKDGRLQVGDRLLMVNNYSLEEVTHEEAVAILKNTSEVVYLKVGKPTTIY

[6] = biological target: DLG4_3, P78352
Chain of DLG4_3, P78352 (P78352 306-403): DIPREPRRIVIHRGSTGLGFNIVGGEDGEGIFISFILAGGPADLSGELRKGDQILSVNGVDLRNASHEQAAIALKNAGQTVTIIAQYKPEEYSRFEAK

[7] = biological target: FRMPD2_2, Q68DX3
Chain of FRMPD2_2, Q68DX3 (Q68DX3 944-1038): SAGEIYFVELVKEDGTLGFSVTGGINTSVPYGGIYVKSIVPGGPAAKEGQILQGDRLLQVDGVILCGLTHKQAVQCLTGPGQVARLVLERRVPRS

[8] = biological target: GORASP1, Q9BQQ3
Chain of GORASP1, Q9BQQ3 (Q9BQQ3 1-208): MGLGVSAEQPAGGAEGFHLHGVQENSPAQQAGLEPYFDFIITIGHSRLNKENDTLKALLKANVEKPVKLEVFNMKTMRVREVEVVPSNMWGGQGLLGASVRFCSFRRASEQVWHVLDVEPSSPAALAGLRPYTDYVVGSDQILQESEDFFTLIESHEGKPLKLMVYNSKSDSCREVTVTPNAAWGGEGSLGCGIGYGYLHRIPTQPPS

[9] = biological target: GORASP2, Q9H8Y8
[10] = biological target: GRID2IP_1, A4D2P6
Chain of GRID2IP_1, A4D2P6 (A4D2P6 1-87): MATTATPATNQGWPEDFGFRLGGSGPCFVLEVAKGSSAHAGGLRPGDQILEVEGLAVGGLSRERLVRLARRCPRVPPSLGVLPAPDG

[11] = biological target: GRID2IP_2, A4D2P6
Chain of GRID2IP_2, A4D2P6 (A4D2P6 272-370): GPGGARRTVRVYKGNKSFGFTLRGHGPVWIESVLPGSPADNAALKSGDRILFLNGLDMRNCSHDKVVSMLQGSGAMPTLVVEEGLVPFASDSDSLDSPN

[12] = biological target: T3, GRIP1_7, Q9Y3R0
T3 sequence (Q9Y3R0 999-1096, limits assumed, looked up): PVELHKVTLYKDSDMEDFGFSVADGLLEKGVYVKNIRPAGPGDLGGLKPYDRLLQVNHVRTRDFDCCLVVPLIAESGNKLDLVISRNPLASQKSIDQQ

[13] = biological target: GRIP2_5, Q9C0E4
Chain of GRIP2_5, Q9C0E4 (Q9C0E4 544-642): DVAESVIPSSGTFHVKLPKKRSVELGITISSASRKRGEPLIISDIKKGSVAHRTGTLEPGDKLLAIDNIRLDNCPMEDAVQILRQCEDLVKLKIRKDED

[14] = biological target: GRIP2_7, Q9C0E4
Chain of GRIP2_7, Q9C0E4 (Q9C0E4 934-1023): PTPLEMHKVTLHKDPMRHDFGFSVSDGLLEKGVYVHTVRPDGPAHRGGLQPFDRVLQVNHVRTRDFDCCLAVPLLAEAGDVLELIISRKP

[15] = biological target: HTRA2, O43464
Chain of HTRA2, O43464 (O43464 355-458): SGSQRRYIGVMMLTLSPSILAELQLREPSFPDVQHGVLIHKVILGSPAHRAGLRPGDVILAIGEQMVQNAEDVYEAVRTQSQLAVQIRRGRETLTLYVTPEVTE

[16] = biological target: T4, HTRA3, P83110
T4 sequence (P83110 354-453, limits assumed, looked up): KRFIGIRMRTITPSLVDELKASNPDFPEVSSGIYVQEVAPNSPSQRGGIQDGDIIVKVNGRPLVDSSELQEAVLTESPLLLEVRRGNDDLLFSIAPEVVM

[17] = biological target: LDB3, O75112
Chain of LDB3, O75112 (O75112 1-94): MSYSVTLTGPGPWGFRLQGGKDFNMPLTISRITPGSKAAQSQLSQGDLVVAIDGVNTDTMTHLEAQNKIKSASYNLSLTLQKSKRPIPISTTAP

[18] = biological target: T5, LIN7C, Q9NUP9
T5 sequence (Q9NUP9 88-185, limits assumed, looked up): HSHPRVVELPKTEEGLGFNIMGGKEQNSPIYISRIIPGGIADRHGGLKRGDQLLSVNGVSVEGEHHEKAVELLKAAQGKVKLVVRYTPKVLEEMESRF

[19] = biological target: MAGI2_2, Q86UL8
Chain of MAGI2_2, Q86UL8 (Q86UL8 410-522): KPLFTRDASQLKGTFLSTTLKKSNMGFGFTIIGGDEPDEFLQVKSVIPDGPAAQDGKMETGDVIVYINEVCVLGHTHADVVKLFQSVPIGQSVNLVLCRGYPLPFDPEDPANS

[20] = biological target: MAGI2_5, Q86UL8
Chain of MAGI2_5, Q86UL8 (Q86UL8 915-1017): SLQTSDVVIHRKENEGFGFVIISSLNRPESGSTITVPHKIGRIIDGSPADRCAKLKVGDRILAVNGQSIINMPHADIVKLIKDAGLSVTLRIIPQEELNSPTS

[21] = biological target: MAST1, Q9Y2H9
Chain of MAST1, Q9Y2H9 (Q9Y2H9 962-1065): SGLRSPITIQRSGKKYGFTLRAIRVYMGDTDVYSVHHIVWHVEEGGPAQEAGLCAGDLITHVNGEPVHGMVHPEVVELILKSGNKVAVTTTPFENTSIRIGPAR

[22] = biological target: T6, MPDZ_12, O75970
T6 sequence (O75970 1857-1958, limits assumed, looked up): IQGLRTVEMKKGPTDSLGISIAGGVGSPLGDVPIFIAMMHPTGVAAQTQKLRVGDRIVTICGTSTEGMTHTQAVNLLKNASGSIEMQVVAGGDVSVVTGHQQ

[23] = biological target: NHERF2_2, Q15599
Chain of NHERF2_2, Q15599 (Q15599 142-238): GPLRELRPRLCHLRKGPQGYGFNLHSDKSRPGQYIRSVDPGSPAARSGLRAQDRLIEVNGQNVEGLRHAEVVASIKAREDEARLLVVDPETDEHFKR

[24] = biological target: SCRIB_1, Q14160
Chain of SCRIB_1, Q14160 (Q14160 718-814): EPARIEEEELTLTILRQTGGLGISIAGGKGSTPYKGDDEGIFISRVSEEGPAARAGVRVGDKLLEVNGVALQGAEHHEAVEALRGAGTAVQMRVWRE

[25] = biological target: T7, SNTA1, Q13424
T7 sequence (Q13424 82-180, limits assumed, looked up): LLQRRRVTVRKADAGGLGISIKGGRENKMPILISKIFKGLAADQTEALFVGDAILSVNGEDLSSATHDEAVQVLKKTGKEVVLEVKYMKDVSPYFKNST

[26] = biological target: T8, SNTG2, Q9NY99
T8 sequence (Q9NY99 68-166, limits assumed, looked up): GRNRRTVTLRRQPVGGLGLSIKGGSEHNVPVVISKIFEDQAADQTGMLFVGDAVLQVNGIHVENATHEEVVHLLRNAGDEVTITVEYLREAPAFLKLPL

[27] = biological target: T9, SYNJ2BP, P57105
T9 sequence (P57105 8-110, limits assumed, looked up): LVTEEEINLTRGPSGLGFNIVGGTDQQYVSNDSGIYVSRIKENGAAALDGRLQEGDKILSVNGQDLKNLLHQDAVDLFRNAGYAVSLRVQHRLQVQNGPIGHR

[28] = biological target: T10, TIAM2, Q8IVF5
T10 sequence (Q8IVF5 885-986, limits assumed, looked up): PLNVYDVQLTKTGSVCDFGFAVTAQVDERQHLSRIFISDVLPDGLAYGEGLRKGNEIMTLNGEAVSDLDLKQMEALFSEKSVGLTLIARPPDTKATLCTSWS

[29] = plain residues with an end cap or a label only (N-terminal biotin on a linker: ahx)
[30] = plain residues with an end cap or a label only (N-terminal biotin on a linker: ttds)

Chain of AHNAK1, Q09666 (Q09666 4-100): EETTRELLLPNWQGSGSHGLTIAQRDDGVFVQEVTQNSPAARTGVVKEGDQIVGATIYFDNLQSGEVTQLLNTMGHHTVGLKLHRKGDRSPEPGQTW

pKd [1, 30]: below the threshold
pKd [2, 30]: below the threshold
pKd [3, 30]: below the threshold
pKd [4, 30]: 4.12
pKd [5, 30]: 4.69
pKd [6, 30]: 3.84
pKd [7, 30]: 4.93
pKd [8, 30]: below the threshold
pKd [9, 30]: below the threshold
pKd [10, 30]: below the threshold
pKd [11, 30]: 3.98
pKd [12, 30]: 3.74
pKd [13, 30]: below the threshold
pKd [14, 30]: below the threshold
pKd [15, 30]: below the threshold
pKd [16, 30]: below the threshold
pKd [17, 30]: below the threshold
pKd [18, 30]: 4.49
pKd [19, 30]: 3.65
pKd [20, 30]: 4.69
pKd [21, 30]: 4.57
pKd [22, 30]: below the threshold
pKd [23, 30]: 4.01
pKd [24, 30]: 4.71
pKd [25, 30]: 5.37
pKd [26, 30]: 4.95
pKd [27, 30]: 5.31
pKd [28, 30]: below the threshold
Binder: IQREDQETAV [DGKZ, Q13574]

pKd [1, 29]: below the threshold
pKd [2, 29]: below the threshold
pKd [3, 29]: below the threshold
pKd [4, 29]: below the threshold
pKd [5, 29]: below the threshold
pKd [6, 29]: below the threshold
pKd [7, 29]: below the threshold
pKd [8, 29]: below the threshold
pKd [9, 29]: below the threshold
pKd [10, 29]: below the threshold
pKd [11, 29]: below the threshold
pKd [12, 29]: below the threshold
pKd [13, 29]: below the threshold
pKd [14, 29]: below the threshold
pKd [15, 29]: below the threshold
pKd [16, 29]: below the threshold
pKd [17, 29]: below the threshold
pKd [18, 29]: below the threshold
pKd [19, 29]: below the threshold
pKd [20, 29]: below the threshold
pKd [21, 29]: 3.94
pKd [22, 29]: below the threshold
pKd [23, 29]: 4.25
pKd [24, 29]: below the threshold
pKd [25, 29]: below the threshold
pKd [26, 29]: below the threshold
pKd [27, 29]: below the threshold
pKd [28, 29]: below the threshold
Binder: SSSNSEDTEM [NHERF3, Q5T2W1]

Continued, binder first:

Binder: KTSAHHATFV [RGS12, O14924]
pKd [1, 29]: below the threshold
pKd [2, 29]: below the threshold
pKd [3, 29]: below the threshold
pKd [4, 29]: below the threshold
pKd [5, 29]: 4.01
pKd [6, 29]: below the threshold
pKd [7, 29]: 4.72
pKd [8, 29]: 3.86
pKd [9, 29]: 4.12
pKd [10, 29]: below the threshold
pKd [11, 29]: 4.27
pKd [12, 29]: below the threshold
pKd [13, 29]: below the threshold
pKd [14, 29]: 3.72
pKd [15, 29]: 3.93
pKd [16, 29]: 4.42
pKd [17, 29]: below the threshold
pKd [18, 29]: below the threshold
pKd [19, 29]: 4.29
pKd [20, 29]: 4.37
pKd [21, 29]: 3.65
pKd [22, 29]: 3.78
pKd [23, 29]: below the threshold
pKd [24, 29]: 3.8
pKd [25, 29]: 3.63
pKd [26, 29]: below the threshold
pKd [27, 29]: 4.26
pKd [28, 29]: below the threshold

Binder: SPLHSLETSL [ATP2B1, P20020]
pKd [1, 30]: below the threshold
pKd [2, 30]: 3.47
pKd [3, 30]: below the threshold
pKd [4, 30]: 4.08
pKd [5, 30]: 4.18
pKd [6, 30]: 4.01
pKd [7, 30]: 3.48
pKd [8, 30]: 3.61
pKd [9, 30]: below the threshold
pKd [10, 30]: below the threshold
pKd [11, 30]: 4.17
pKd [12, 30]: 3.58
pKd [13, 30]: below the threshold
pKd [14, 30]: below the threshold
pKd [15, 30]: below the threshold
pKd [16, 30]: below the threshold
pKd [17, 30]: below the threshold
pKd [18, 30]: 4.45
pKd [19, 30]: 3.86
pKd [20, 30]: 4.31
pKd [21, 30]: 4.92
pKd [22, 30]: below the threshold
pKd [23, 30]: 4.87
pKd [24, 30]: 5.36
pKd [25, 30]: 4.5
pKd [26, 30]: 4.66
pKd [27, 30]: 4.91
pKd [28, 30]: below the threshold

Binder: RNCSTNDSLL [ADRB2, P07550]
pKd [1, 29]: below the threshold
pKd [2, 29]: below the threshold
pKd [3, 29]: below the threshold
pKd [4, 29]: below the threshold
pKd [5, 29]: below the threshold
pKd [6, 29]: below the threshold
pKd [7, 29]: below the threshold
pKd [8, 29]: below the threshold
pKd [9, 29]: 3.52
pKd [10, 29]: below the threshold
pKd [11, 29]: below the threshold
pKd [12, 29]: 3.48
pKd [13, 29]: below the threshold
pKd [14, 29]: below the threshold
pKd [15, 29]: below the threshold
pKd [16, 29]: below the threshold
pKd [17, 29]: below the threshold
pKd [18, 29]: below the threshold
pKd [19, 29]: below the threshold
pKd [20, 29]: below the threshold
pKd [21, 29]: 3.74
pKd [22, 29]: below the threshold
pKd [23, 29]: 3.7
pKd [24, 29]: 3.58
pKd [25, 29]: below the threshold
pKd [26, 29]: below the threshold
pKd [27, 29]: below the threshold
pKd [28, 29]: below the threshold
